Measured values as given in patent US11242370B2, “Neuregulin-4 compounds and methods of use” (Eli Lilly and Company, priority 2019, dated 2022).
Where a chain is given by its changes, count along the chain named. Names and notes keep the numbering of the source. Where two headings read alike, the source gives them in different places. Bridges are numbered along the chain shown (N, C = ends). Where no end group is shown, it is not given here.

How the values were obtained:
[1] = in vivo; conditions: rat, plasma, sc
From the text: (§2) On Day 4, blood samples are collected to determine plasma concentration and the infusion pump is removed.

[2] = in vivo; conditions: rat, plasma, sc, 2.18 mg/kg/day
From the text: At the end of designated infusion phase, blood samples are collected to determine plasma concentration and the infusion pump is removed.

[3] = Plasma pharmacokinetics in monkeys (toxicology studies); conditions: cynomolgus monkey, in vivo, sc
Method: (§1) Example 11 is administered in a single 3 mg/kg dose to male and female monkeys by SC bolus injection.

[4] = Day 4 (96 hours), steady state
From the text: as §2

[5] = Plasma pharmacokinetics in rats (toxicology studies); conditions: rats
Method: as §1

[6] = biological target: T1, human HER2 and HER4 (Homo sapiens, UniProt Q15303); experiment: Screening by human HER2-HER4 mediated ERK 1/2 phosphorylation in CHO-hHER2-hHER4 (clone 1H6) cells; format: cell-based; conditions: Table 5; Fc variants as 293F supernatants; Examples average of two replicates ± standard deviation
T1 construct: expressed in transfected cells
Method: A cell based assay utilizing CHO-K1 cells overexpressing human or rat HER receptors is used to determine activity of NRG4 compounds. CHO-K1 cells (ATCC) are grown in DMEM-F12 3:1 with 5% FBS with 20 mM HEPES, 40 μg/mL L-Proline, lx antibiotics and were split 1:5 every 2-3 days with TripLE Express (Gibco). Cells are transfected with plasmid DNA encoding HER receptors in pairs (hHER2-3, hHER2-4, rHER2-3 and rHER2-4) with Fugene 6 (Promega) according to the manufacturer's instructions. […] Transfected cells are selected with Puromycin (12 ug/ml) and Hygromycin (1 mg/ml) for 3-4 weeks and clonal lines are obtained by limited dilution cloning into 96 well plates. Clonal lines are selected by appropriate gene expression of HER2, HER3 or HER4 by Taqman method. Lines with appropriate receptor expression are confirmed by NRG1 induced phospho-ERK 1/2 responses. Clones are grown up, harvested, aliquoted into cryovials and then frozen under liquid nitrogen for long-term storage.
A phospho-ERK1/2 activity assay is used to determine potencies of NRG4 compounds. The potency of Examples 1-8 and 10 as compared to WT human NRG1 and/or human NRG4 are analyzed in studies measuring stimulation of human HER2-HER4 mediated ERK 1/2 phosphorylation. This assay comprises a CHO-K1 stable line expressing human HER2 and HER4. CHO-hHER2-hHER4 (clone 1H6) cells are routinely cultured in DMEM: F12(3:1), 5% FBS, 40 μg/mL L-Proline, 10 μg/mL puromycin and 1 mg/mL hygromycin at 37° C., 5% CO2. Cells are washed twice with 1×PBS, dissociated with 0.05% trypsin/[…] EDTA and collected by centrifugation at 300×g for 10 m. Cells are re-suspended in maintenance media. 20,000 cells/well, in 30 μL, are seeded into 384 well Poly-D-Lysine cell culture plates (Greiner, Cat No. 781946). Plates are covered with a manufacturer's lid and moved to a 37° C. tissue culture incubator at 5% CO^2, 80%+ humidity and allowed to adhere. After 24 h, media are removed from the plates and replaced with 30 μL serum-free starvation media (Low glucose DMEM with 0.1% BSA) using a Biomek FX liquid handler. Plates are returned to the incubator for 24 h.
hFcNRG4 variants, transiently expressed as 293F supernatants, are prepared in starvation media in a clear 384W plate (Greiner, cat no. 781185) as a 4pt 1:8 serial dilution (dose range averaged between 250 pM to 140000 pM). Media are removed from the cell culture plates and the 30 uL/well prepared variants are stamped into the plates using a Biomek FX liquid handler. Plates are sealed with a foil seal and stimulated for 15 minutes at room temperature on an orbital shaker. Cells are then washed once with 50 uL cold PBS. 30 uL lysis buffer is added to the cells and oscillated for 10 m at RT on an orbital shaker.
Detection of phosphorylation of ERR 1/2 is performed with either an AlphaScreen SureFire phospho-ERK1/2 kit (T202/Y204) (Perkin Elmer, catalog no. TGRES) or an AlphaLISA® SureFire® Ultra™ p ERK1/2 assay kit together with the AlphaScreen Protein. A IgG Detection Kit (Protein-A) (PerkinElmer, catalogue no. 6760617). After lysis of the CHO-K1 cells. 4 μL lysate is transferred to a 384W Alpha Proxiplate (Perkin Elmer, cat no, 6008280) with a 384W Biomek FX. 4 uL positive and negative lysates (Perkin Elmer, TGRES-L) are added to available wells as controls. 5 uL/well acceptor mix (containing anti-phoso-Thr202/Tyr204 antibodies and Protein A conjugated acceptor beads) is added to the plate with a Forumlatrix Mantis. The plate is sealed, spun down for 1 min at 300×g and incubated for 2 hr at room temperature on an orbital shaker. 2 μL/well donor mix (containing strepavidin coated donor beads and biotinylated antibodies to a distal ERK1/2 epitope) is dispensed by Mantis. The plate is sealed, spun down for 1 min at 300×g and incubated for 2 hr at room temperature on an orbital shaker before reading on the Perkin Elmer Envision 2103 Multilabel Reader (HIS Alpha mode, excitation time: 40 ms, total measurement time: 130 ms). […]

[7] = biological target: T2, HER4 receptor extracellular domain (ECD) (Homo sapiens, UniProt Q15303); experiment: HER4/NRG-Fc binding assay (ELISA) for screening NRG4 variants
T2 construct: C-terminal His-tagged HER4 receptor extracellular domain (ECD) construct
T2 sequence (Q15303 26-651 limits assumed): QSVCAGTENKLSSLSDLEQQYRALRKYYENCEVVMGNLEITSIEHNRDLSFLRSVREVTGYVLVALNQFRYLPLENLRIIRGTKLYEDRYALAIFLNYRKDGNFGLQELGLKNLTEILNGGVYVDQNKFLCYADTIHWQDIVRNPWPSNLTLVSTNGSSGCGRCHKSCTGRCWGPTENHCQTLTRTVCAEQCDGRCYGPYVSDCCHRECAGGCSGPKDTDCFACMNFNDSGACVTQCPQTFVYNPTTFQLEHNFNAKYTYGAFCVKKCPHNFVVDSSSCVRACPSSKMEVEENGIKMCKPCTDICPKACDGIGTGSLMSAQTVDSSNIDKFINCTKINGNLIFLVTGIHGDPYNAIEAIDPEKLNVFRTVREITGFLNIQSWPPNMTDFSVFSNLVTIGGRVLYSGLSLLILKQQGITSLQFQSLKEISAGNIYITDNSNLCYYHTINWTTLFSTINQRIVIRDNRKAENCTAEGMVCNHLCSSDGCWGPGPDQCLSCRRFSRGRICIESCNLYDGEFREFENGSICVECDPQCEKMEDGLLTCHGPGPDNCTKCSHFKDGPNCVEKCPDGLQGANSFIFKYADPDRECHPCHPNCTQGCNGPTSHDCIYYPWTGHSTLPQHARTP
Method: A binding assay is utilized to perform high-throughput screening of NRG4 variant Fc fusion proteins to HER4 receptor, to identify affinity-driven variants with the potential to increase receptor activation and signaling. ELISA plates are coated with an anti-His tag antibody at 2 μg/ml in PBS to facilitate the standardized capture of a C-terminal His-tagged HER4 receptor extracellular domain (ECD) construct after blocking the plate with 1% BSA/PBS/0.1% Tween 20 (HER4 ECD at 5 μg/ml). Saturating amounts of unpurified NRG4-Fc variants in expression media (Starting at 10 μg/ml with serial dilutions in 1% BSA/PBS/0.1% Tween 20) are incubated with the captured receptor for 1 hour. After washing, bound variant NRG4-Fc is detected colorimetrically with an anti-human Fc-specific alkaline phosphatase secondary detection reagent to quantitate binding. Incubation times of variant binding to receptor or durations of the subsequent wash steps are varied to further identify binding variants driven by affinity on-rate and off-rate, respectively.

H-GGGGSGHEEPCGPSHKSFCLNGGLCYQIPTIPSPFCRCVENYTGARCEKVFL (disulfide 11-25, 19-36, 38-47 (inferred)) [Example 9]
level at time molar at 96 h ([1]; 0.22 mg/kg/day): 2.59 nM
level at time molar at 96 h ([1]; 0.73 mg/kg/day): 9.94 nM
level at time molar at 48 h [2]: 40.1 nM
level at time molar at 72 h [2]: 47.3 nM
level at time molar at 96 h [2]: 31.4 nM
half-life [3]: < 5 h
Exposure in rat plasma, Mean ([4]; 2.18 mg/kg/day SC infusion): 29.62 nM
Exposure in rat plasma, Mean ([4]; 7.28 mg/kg/day SC infusion): 72.24 nM
half-life after SC administration [5]: less than an hour

B1: Example 1: NRG4 D1G, (GGGGS)3 linker, SEQ ID NO: 10, fused to IgG Fc dimer SEQ ID NO: 6 and 7 (protein)
chain 1: GGGGSGGGGSGGGGSGHEEPCGPSHKSFCLNGGLCYVIPTIPSPFCRCVENYTGARCEEVFL
chain 2: ECPPCPAPPVAGPSVFLFPPKPKDTLMISRTPEVTCVVVDVSHEDPEVQFNWYVDGVEVHNAKTKPREEQFNSTFRVVSVLTVVHQDWLNGKEYKCKVSNKGLPAPIEKTISKTKGQPREPQVYTLPPSREEMTKNQVSLWCLVKGFYPSDIAVEWESNGQPENNYKTTPPVLDSDGSFFLYSKLTVDKSRWQQGNVFSCSVMHEALHNHYTQKSLSLSPG
chain 3: B1 chain 2 with W141S, L143A, Y182V
EC50 [6]: 0.77 ± 0.16 nM
O.D. 405, binding to HER4 extracellular domain ([7]; Dose # 1: Example 1 10.65, WT NRG1 10, WT NRG4 17 μg/mL): 1.485
O.D. 405, binding to HER4 extracellular domain ([7]; Dose # 2: Example 1 5.325, WT NRG1 5, WT NRG4 8.5 μg/mL): 1.438
O.D. 405, binding to HER4 extracellular domain ([7]; Dose # 3: Example 1 2.6625, WT NRG1 2.5, WT NRG4 4.25 μg/mL): 1.4
O.D. 405, binding to HER4 extracellular domain ([7]; Dose # 4: Example 1 1.33125, WT NRG1 1.25, WT NRG4 2.125 μg/mL): 1.332
O.D. 405, binding to HER4 extracellular domain ([7]; Dose # 5: Example 1 0.665625, WT NRG1 0.625, WT NRG4 1.0625 μg/mL): 1.217
O.D. 405, binding to HER4 extracellular domain ([7]; Dose # 6: Example 1 0.332813, WT NRG1 0.3125, WT NRG4 0.53125 μg/mL): 1.081
O.D. 405, binding to HER4 extracellular domain ([7]; Dose # 7: Example 1 0.166406, WT NRG1 0.15625, WT NRG4 0.265625 μg/mL): 0.865
O.D. 405, binding to HER4 extracellular domain ([7]; Dose # 8: Example 1 0.083203, WT NRG1 0.078125, WT NRG4 0.132813 μg/mL): 0.607
O.D. 405, binding to HER4 extracellular domain ([7]; Dose # 9: Example 1 0.041602, WT NRG1 0.039063, WT NRG4 0.066406 μg/mL): 0.404
O.D. 405, binding to HER4 extracellular domain ([7]; Dose # 10: Example 1 0.020801, WT NRG1 0.019531, WT NRG4 0.033203 μg/mL): 0.235
O.D. 405, binding to HER4 extracellular domain ([7]; Dose # 11: Example 1 0.0104, WT NRG1 0.009766, WT NRG4 0.016602 μg/mL): 0.136
O.D. 405, binding to HER4 extracellular domain ([7]; Dose # 12: Example 1 0.0052, WT NRG1 0.004883, WT NRG4 0.008301 μg/mL): 0.096
